Results on 30 sequences are retold here after the nanobody polyreactivity screen of Harvey et al. (2022).

The nature of this data set: yeast display, Sf9 membrane polyspecificity reagent, FACS + sequencing; frameworks hold sequencing errors. In outline: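 Genes from sorted yeast were amplified by colony PCR, read by MiSeq 2 × 250 sequencing and filtered on CDR length. These cells carried a synthetic nanobody library in Saccharomyces cerevisiae BJ5465 and were sorted by FACS into low and high (top ~1%) gates on anti-HA and streptavidin fluorescence. Polyreactivity is labelled according to the gate of origin.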
With “QVQLVESGGGLVQAGGSLRLSCAASGITFVHYVMGWYRQAPGKERELVAVITKGGARTSYADSVKGRFTISRDNAKNTVYLQMNSLKPEDTAVYYCAAREVYPLFTKYYYWGQGTQVTVSS”, the “polyreactivity (PSR sort gate)” value was “high polyreactivity”.

For “QVQLVESGGGLVQAGGSLRLSCAASGITFVPNAMGWYRQAPGKERELVARIDNGVSTNYADSVKGRFTISRDNAKNTVYLQMNSLKPEDTAVYYCAVGYWDSRYRYDWPNSDYWGQGTQVTVSS”, the “polyreactivity (PSR sort gate)” value was “low polyreactivity”.

On to “QVQLVESGGGLVQAGGSLRLSCAASGITFVPYAMGWDRQAPGKERELVAAISSSGGSTYYADSVKGRFTISRDNAKNTVYLQMNSLKPEDTAVYYCNVRTHSYIGMDYWGQGTQVTVSS”, for which the “polyreactivity (PSR sort gate)” value was “low polyreactivity”.

Consider “QVQLVESGGGLVQAGGSLRLSCAASGITFVPYVMGWYRQAPGKERELVAAITVRGSRTYYADSVKGRFTISRDNAKNTVYLQMNSLKPEDTAVYYCAAGRYLSRTFFTYYYWGQGTQVTVSS”, for which the “polyreactivity (PSR sort gate)” value was “high polyreactivity”.

Regarding “QVQLVESGGGLVQAGGSLRLSCAASGITFVQNVMGWYRQAPGKEREFVAGINNSGGSTYYADSVKGRFTISRDNAKNTVYLQMNSLKPEDTAVYYCAAVYDRYTYAFVYRYRRMYYWGQGTQVTVSS”, the “polyreactivity (PSR sort gate)” value is recorded as “low polyreactivity”.

Take “QVQLVESGGGLVQAGGSLRLSCAASGITFVRNAMGWYRQAPGKEREFVAAISGSGVSTYADSVKGRFTISRDNAKNTVYLQMNSLKQEDTAVYYCNTDEWYHFYHGSHKYDYWGQGTQVTVSS”: the “polyreactivity (PSR sort gate)” value was “low polyreactivity”.

Consider “QVQLVESGGGLVQAGGSLRLSCAASGITFVRNAMGWYRQAPGKEREFVAAISGSGVSTYADSVKGRFTISRDNAKNTVYLQMNSLNPEDTAVYYCARDFPWSYAWYDYWGQGTQVTVSS”, for which the “polyreactivity (PSR sort gate)” value is “low polyreactivity”.

Take “QVQLVESGGGLVQAGGSLRLSCAASGITFVRNAMGWYRQAPGKERELVAAISSGGSTYYADSVKGRFTISRDNAKNTVYLQINSLKPEDTAVYYCNAQIYGRQYRYRWHYYWGQGTQVTVSS”: the “polyreactivity (PSR sort gate)” value is listed as “high polyreactivity”.

On to “QVQLVESGGGLVQAGGSLRLSCAASGITFVRNTMGWYRQAPGKERELVAAIDSGGNTNADSVKGRFTISRDNAKNTVYLQMNSLTPEDTAVYYCAVDGGEFSSYGYWGQGTQVTVSW”, for which the “polyreactivity (PSR sort gate)” value is recorded as “low polyreactivity”.

In the case of “QVQLVESGGGLVQAGGSLRLSCAASGITFVRNTMGWYRQAPGKERELVAAISKSGDNTYYADSVKGRFTISRDNAKNTVYLQMNSLKPEDTAVYYCNKAYRKFYYGYDYWGQGTQVTVSS”, the “polyreactivity (PSR sort gate)” value was “high polyreactivity”.

On to “QVQLVESGGGLVQAGGSLRLSCAASGITFVTYAMGWYRKAPGKERELVAAISRSGGRTYYADSVKGRFTISRDNAKNTVYLQMNSLKPEDTAVYYCAAERKNKYDYWGQGTQVTVSS”, for which the “polyreactivity (PSR sort gate)” value is “high polyreactivity”.

As to “QVQLVESGGGLVQAGGSLRLSCAASGITFVYYTMGWYRQAPGKERELVAAISSTGGSTYYADSVKGRFTISRDNAKNTVYLQMNSLKPEDTAVYYCAADARTFGGYGYWGQGTQVTVAS”, the “polyreactivity (PSR sort gate)” value is “high polyreactivity”.

With “QVQLVESGGGLVQAGGSLRLSCAASGITFVYYVMGWYRQAPGKERELVAAINAGGGSTYYADSVKGRFTISRDNAKNTVYLQMNSLKPEDTAVYYCNARVRVRLGRNWSSYYYWGQGTQVTVSS”, the “polyreactivity (PSR sort gate)” value is listed as “high polyreactivity”.

In the case of “QVQLVESGGGLVQAGGSLRLSCAASGITFWFYSKGWYRQSPGNERELVAAISRSGSTNYADSVKGRFTISRDNAKNTVYLQMNSLKPEDTAVYYCAASTYKYKLLYYQYDYWGQGTQVTVSS”, the “polyreactivity (PSR sort gate)” value is on record as “high polyreactivity”.

For “QVQLVESGGGLVQAGGSLRLSCAASGITFWGYAMGWYRQAPGKEREFVARINWSGGRTYYAESVKGRFTNSRDNAKNTVYLQMNSLKPEDTAVYYCAATSLIYGYRTYDYWGQGTQVTVSS”, the “polyreactivity (PSR sort gate)” value is listed as “high polyreactivity”.

As to “QVQLVESGGGLVQAGGSLRLSCAASGITFWKYAMGWYRQAPGKERELVAVITKSGGSTYYADSVKGRFTISRDNAKNTVYLQMNSLKPEDTAVYYCAASSETYYYGYEYWGQGTQVTVSS”, the “polyreactivity (PSR sort gate)” value is on record as “high polyreactivity”.

As for “QVQLVESGGGLVQAGGSLRLSCAASGITFWKYTMGWYIPAPGKERELVASIRIGGSTYYADSVKGRFTISRDNAKNTVYLQMNSLKPEDTAVYYCAAKGIYGLQGSPRSGYYYWGQGTQVTVSS”, the “polyreactivity (PSR sort gate)” value is listed as “high polyreactivity”.

With “QVQLVESGGGLVQAGGSLRLSCAASGITFWNYAMGWYRQAPGKERELVAAISYSGGSTYYADSVKGRFTISRDNAKNTVYLQMNSLKPEDTAVYYCAATLPTNWVRYEYWGQGTQVTVSS”, the “polyreactivity (PSR sort gate)” value was “low polyreactivity”.

Consider “QVQLVESGGGLVQAGGSLRLSCAASGITFWSNSMGWYRQAPGKERELVATITSSGGDNTNYADSVKGRFTISRDNAKNSVYLQMNSLKPEDTAVYYCNKEGQQSYRWRMDYWGQGTQVTVSS”, for which the “polyreactivity (PSR sort gate)” value is “low polyreactivity”.

With “QVQLVESGGGLVQAGGSLRLSCAASGITFWSYAMGWYRQAPGKERELVAAITWRGGSTYYADSVKGRFTISRDNAKNTVYLQMNSLKPEDTAVYYCNAVYRRDGYNYWGQGTQVTVSS”, the “polyreactivity (PSR sort gate)” value is given as “high polyreactivity”.

With “QVQLVESGGGLVQAGGSLRLSCAASGITFWYYAMGWYRQAPGKERELVAVISRGGSTYYADSVKGRFTISRDNAKNTVYLQMNSLKPEDTAVYYCAARQRWYTYTRQEYDYWGQGTQVTVSS”, the “polyreactivity (PSR sort gate)” value was “high polyreactivity”.

Take “QVQLVESGGGLVQAGGSLRLSCAASGITFYDNDMGWYRQAPGKERELVAGITGTTVGTYYADSVKGRFTISRDYAKNTVYLQMNSLKPEDTAVYYCAATSLAGYYQFDYWGQGTQVTVSS”: the “polyreactivity (PSR sort gate)” value is on record as “low polyreactivity”.

“QVQLVESGGGLVQAGGSLRLSCAASGITFYDYAMGWYRQAPWKERELVAAISFSGSRTYYADSVKGRFTISRDNAKNTVYLQMNSLKPEDTAVYYCAASQARNYKIYDYWGQGTQVTVSS”: the “polyreactivity (PSR sort gate)” value is recorded as “high polyreactivity”.

Consider “QVQLVESGGGLVQAGGSLRLSCAASGITFYDYAMGWYRQEPGKERELVAAINSSGVRTYYADSVKGRFTISRDNAKNTVYLQMNSLKPEDTAVYYCAAVRRGPYISRSDMDYYWGQGTQVTVSS”, for which the “polyreactivity (PSR sort gate)” value is listed as “high polyreactivity”.

For the sequence “QVQLVESGGGLVQAGGSLRLSCAASGITFYGNAMGWYRQAPGKERELVAAISSSGGTTYYADSVKGRFTISRDNAKNTVYLQMNSLKPEDTAVYYCNALHPVVYYGTYFNLRRYDYWGQGTQVTVSS”, the “polyreactivity (PSR sort gate)” value is recorded as “low polyreactivity”.

On to “QVQLVESGGGLVQAGGSLRLSCAASGITFYGNAMGWYRQAPGKERELVANTYYADSVKGRFTISRDNAKNTVYLQMNSLKPEDTAVYYCATRNARYRSQPPGYDYWGQGTQVTVSS”, for which the “polyreactivity (PSR sort gate)” value is on record as “low polyreactivity”.

“QVQLVESGGGLVQAGGSLRLSCAASGITFYGNAMGWYRQAPGKERELVATISRSDGRTYYADSVKGRFTISRDNANNTVYLQMNSLKPEDTAVYYCAAYTTRPYWGQGTQVTVSS”: the “polyreactivity (PSR sort gate)” value is on record as “high polyreactivity”.

Regarding “QVQLVESGGGLVQAGGSLRLSCAASGITFYGYAMGWYRQAPGKERELVARISSGGTTKYADSVKGRFTISRDNAKNTVYLQMNSLKPEDTAVYYCAVGGYWWYYGFYYWGQGTQVTVSS”, the “polyreactivity (PSR sort gate)” value is reported as “high polyreactivity”.

In the case of “QVQLVESGGGLVQAGGSLRLSCAASGITFYGYAMGWYRQAPGKERELVAVITSSGSSTYYADSVKGRFTISRDNAKNTVYLQMNSLKPEDTAVYDCNARPGRRSLRSRTYDYWGQGTQVTVSS”, the “polyreactivity (PSR sort gate)” value is given as “high polyreactivity”.

Regarding “QVQLVESGGGLVQAGGSLRLSCAASGITFYHYAMGWYRQAPGKKRELVASITDGGITKYADSVKGRFTISRDNAKYTVYLQMNSQNPEDTAVYYCAAIAYPDIPTYFDYDSDFFYWGQGTQVTVSS”, the “polyreactivity (PSR sort gate)” value was “high polyreactivity”.
